Source: the DeepSol protein solubility set

Experiment: soluble on expression in E. coli; label from the status in PepcDB or PDB records

Row | Sequence | soluble on expression in E. coli
1 | MLEKWEPIMAETRKLKYDEAALRTLTREDLDALEIGAGILGTGGGGNPYLGKLLALEAMKAGYEMKILATDAIEPDALCMSIGGIGAPVVGVERIREGREGLRCLRAMEELIRTPVDAIVCEEIGGSNSMNPLVTAALGGLPILDCDGMGRAFPEMQMTTFSIYGHSSTPSVMCDLHGNAVIFSHAVSEVWHERMARACVVAQGGGAMLATAPMQAHYVHQYGIPKTYTKAIAIGEAVIRARKQQEDPIAAVCALEGGRRIFNGKITDLKRHLRGGFAVGDLTLSGFDDCAGQTAGVAIQNEFLLFSRDGKVEVTVPDLIVLLDVDTGYPITTEVLRYGQRVAVIAIPCHDLLRSARALEVVGPAAFGYPDIPFSPLPLPVSKAALEHHHHHH | soluble
2 | MGSDKIHHHHHHMMYPMPSWVYDSVVYQIFPDRFFIGKGKTVEDKKDLYLKRGGVIEKWGVPPRKLPGAQHVKIFYGGDLWGIAEKVDYFEELGINVLYLTPIFLSDTNHKYDTIDYFRVDPQFGGKRAFLHLLRVLHERSMKLILDGVFNHVGSQHPWFKKAKKNDPEYVNRFFLYKDRHRSWFDVGSLPELNVEVEEVKEYILKVVEHYLKLGIDGWRLDCGHDLGPTVNLWINMKVKEFSAEKYLVSEIWTYPAGWDMVDGLMNYNFRNLVLSYVNGETDSIGFHLERAYRETKNIFGCWNMLDSHDTPRLATMVPDRDLRKLAVVLQFTYPGVPLVYYGTEIGLTGGEDPECRATMEWNREKWDVDLFEFYKKMIRLRRTDPGLRFGEFVLLNDSPLAFLRKAPHPLQNTIVVVNPGEEKVLVLSIPDGKIMNTTPLVDVFSGERFHVDGGVVKLPLLARSFRILKPEDLRVGKYRLYKRV | not soluble
3 | MGSDKIHHHHHHMTNHQHPQTTTQWIDLIANSELPAITSTARMLDKFSNDDKSSLPKLSEAILHDQGLSSCLLKVANNIQHISINKVTTVSRASVVLGIQSVKNICLTAKLVSSLLASKSLDINVYEQLTQLMANSFYAGMLAKMMVPNYSEEIQEEVYLAAMLYRIGESAFWSAGGDVAKKLANYEAKSPQDFNQYCRKEMGTNFSELSKGLAGTWNLSDLLIKALDQPTTRTDEVKVIYFADKLSAIIAKPEGCEEDYHKLLKEIAYIVGISVRQLTVRIEHTREQAEKLLSSYGAEILTERINSLPTAEDFKSLGGDFDTREVVSKDKALLNGFMKLTKLIQNSKDFNEYLQLTLESLALTFAFDRSSFLMLVDDRARVKSRLVVNKNAQDDASKINIDIKHSDNVIARVISTDTAALINDHQEIRWRDLVTEEISEVIVEGAIAFVPVKIGGKAIGVICLQLLSPDQKIETQDFQQICAFIDHLNMCLTMIKYS | not soluble
4 | RPAIRKRLLKPKVLDSSPRALVGHRAEVLEDVGATSGQVRLDGSIWSARSMDPTHTFAEGEIVSVIDIQGTTAIVWKEA | soluble
5 | MASNEARYVLAEEVDFSSPEEVKNWWNSGTWQAEFGSPDIEWNGEVGNGALQLNVKLPGKSDWEEVRVARKFERLSECEILEYDIYIPNVEGLKGRLRPYAVLNPGWVKIGLDMNNANVESAEIITFGGKEYRRFHVRIEFDRTAGVKELHIGVVGDHLRYDGPIFIDNVRLYKRTGGM | soluble
6 | MSLFIPKRVIFEKDSLDYEAAKNILNKFKDKKDVEIINITSNKLKQHIPGEDFYAQYREGKKTLVVGTKKSLKFQSCKPSAHYQLPLISGCMGQCEYCYLNTKLGDKPFVKVHVNIDEILSQAQKYIDERLPEITIFEGAATSDPIPVEPYTHSLEKAIVFFGKHENARFRFVTKYNDIDSLLDLEHNGHTEMRFSINTSSVINKYEHATASRDLRIEASIKAAKAGYPIGFLVAPVFIYPNWKEEYHDLLLSLSKNLPRDLKTPVTFEIISHRYTSTAKNIILQVFPESELPMSDEERKFKYGQFGYGKYVYPKENIDEMKQFFIKEIEDLFENKEIKYVIEGHHHHHH | soluble
7 | MGSSHHHHHHSSGLVPRGSHMAMVELSGTVTFWDTSNEAEKATYQALAEGFEKEHPKVDVKYVNVPFGEANAKFKNAAGGNSGAPDVMRTEVAWVADFASIGYLAPLDGTPALDDGSDHLPQAAASTRYEGKTYAVPQVIDTLALFYNKELLTKAGVEVPGSVAELKTAAAEITEKTGATGLYLRGDDPYWFLPYLYGEGGDLVDEKNKTVTVDDEAGVRAYRVIKDLVDSKAAITDASDGWNNMQNAFKSGKVAMMVNGPWAIEDVKAGARFKDAGNLGVAPVPAGSAGQGSPQGGWNLSVYAGSKNLDASYAFVKYMSSAKVQQQTTEKLSLLPTRTSVYEVPSVADNEMVKFFKPAVDKAVERPWIAEGNALFEPIRLQMANVLSGETSPDEAAANTGDAYRKLLKDYK | soluble
8 | MGSDKIHHHHHHMHHIGLTRPYSWGIKNFELITVTEKLNIHIQGQGFPILGLHGHPGSGRSLSVFTNHLSKRYQTIAPDLRGYGTSRFRGNFTMQDHLTDLEALLDRLQIEKCLVLGWSLGGILAMELALRLPQRITGLILVATAARPRGNHPPISWQDNLYTGVAGLLNYIKPGWRWNIETFGKRSLFRYLIQQHTPTAYNYIAREALPAYLQTSPSATRALNSALRLGYNRLADLEQIHCPSLVLAGAQDKHITADSSLETAQHLKQSQWQCYPHTAHLFPWEIPQQVINDIDLWLANNSQVMSN | not soluble
9 | MSLESIKVVIVGGGQAGIAMGYYLVKEKVPFMILDANEQVGDSWRNRYDSLVLFTPRTYSQLPGFPMDGAPNGFPTKDEMASYLQQYANHFNLPMRHHTKVDRVTRQQNGRFHLKTTNGWIEAEKVVIATGAFQKPYLPPVLDSANNEMSQVHSSAYRNPAQIPGKSVLVVGGGNSGAQIAVELAKERNVTMAISHPFRFLPLKLLNKSMFSWLEWGGLLYAGIDTTRGRWFKKQKDPIFGKELKSLIKKGQIHLKPRVMNVQGKEVEFADHSRLSFDRIIWSTGFSPSYEWIDIDGVIATNGWPIHNRGITNIRGLYFLGLPWQYQRGSALVCGVGRDAEYLVPFIKHGDKEGHHHHHH | soluble
10 | GSHMIDVPIPRFAVGIVIGRNGEMIKKIQNDAGVRIQFKPDDGTTPERIAQITGPPDRAQHAAEIITDLLRSVQAGNPGGPGPGGRGRGRGQGNWNMGPPGGLQEFNFIVPTGKTGLIIGKGGETIKSISQQSGARIELQRNPPPNADPNMKLFTIRGTPQQIDYARQLIEEKI | soluble
11 | MSYNFELSYVKGCDSVHVVEHKTSAVYYPRSNGAAERFVDTLKRGIAKIKGEGSVNQQILNKFLISYRNTPHSALNGATPAECHFGRKIRTTMSLLMLTDRVLKVPKLTQYQQNMKHHYDLRNGARAKNFQVNQKVYVQVHQGNKSHWKHGVIRRKFGGVLYEVQVGDRMQKSHVNQIRTRCGDYSREDIFEETIYPLFFSTPGKFTSCSDNKSRSGATGGETNLFDSSGSSVNPRLSSDSFGFVGESGGDEMSRSDDPVVTSTVPSTDLNRGSRITSELKKKESNAVRGQPRGSSSTNNNDSSAPGYASRSHPTTDPSHSVRRSSRIRRVPDRYGSSVEHPLTSTGTPRGSTSTQLGQASTRNGSRYTASGRTPSCQGNRYSSIRGEGVTARRERVRSTWR | not soluble
12 | MSKPIQMERGVKYRDADKMALIPIKNMPTEQKEVLRKPEWMKIKLPADSQRIQDIKAAMRKNNLHSVCEEASCPNLAECFNHGTATFMILGAICTRRCPFCDVAHGRPNAPEAEEPKKLAQTIHDMKLKYVVITSVDRDDLRDGGAQHFADCNREIRALNPHIKIETLVPDFRGRMEVALEALKDNPPDVFNHNLETAPRLYRKVRPGANYKWSLELLRQFKEQHPHVPTKSGLMMGLGETKEEIVEVLKDLRAHGVTMLTLGQYLAPSRHHLPVERYVPPAEFDELKEVALELGFTHAACGPFVRSSYHADLQAKGLEVK | not soluble
13 | MSTGITYDEDRKTQLIAQYESVREVVNAEAKNVHVNENASKILLLVVSKLKPASDIQILYDHGVREFGENYVQELIEKAKLLPDDIKWHFIGGLQTNKCKDLAKVPNLYSVETIDSLKKAKKLNESRAKFQPDCNPILCNVQINTSHEDQKSGLNNEAEIFEVIDFFLSEECKYIKLNGLMTIGSWNVSHEDSKENRDFATLVEWKKKIDAKFGTSLKLSMGMSADFREAIRQGTAEVRIGTDIFGARPPKNEARII | soluble
14 | KPEWMMIHRILNHSVDKKGHVHYLIKWRDLPYDQASWESEDVEIQDYDLFKQSYWNH | soluble
15 | MGSDKIHHHHHHMDDIPALMRSLQLKRKPLMVCSGGTTSRCAAEGHWTLDLRQSCRQIHFDPSTQHVEIGAGQTMESLLRELAKHGRSFPTGLSGLPGLGYILNGGISPLSRSQGLAIDQILEIKGVWGDGESFVLSKPEAACCSEDQLAWRGLCGAAPFLAVITDLKLQTHLLQPLRIWQSNLTFEQLLELIHQAESWPDSLSLQWIWGDEVHAYGVLLSADAAAVATFNQLQKTTLCTNVVEIDDVAGIHELPPFALPVVSNAAIGRCHSEVVALLGPAWGSGCQGVITALAELMAERPDPRCSLAVQQLGGVASRQRKDVSSLIHREAIWKPWITAAWPAGDSHIRALSLNWLEKVWATLEPYCAGVHLAQMHPHLPWHQRELKAAFGEWLPGLQELKARHDPNGILPSL | not soluble
16 | MHEPMKTLKNIHAEIRICQKFPKSTVQKRFSEFEELIKAASKNARNWKPISSVELFQGDSSLNELFEKLVIGTCELRDGELFENVNDLTINPSNIHVYKLHKDGPLSQNIGDDDGDESIIGSQLWQLPCVEFDSIWENLIYDSNLKNEVMSYVAALARLSEKHVNTKIINVNRLILLTGPPGTGKTSLCKGLAQHLSIRMNDKYSKSVMLEINSHSLFSKWFSESGKLVQKMFDQIDELAEDEKCMVFVLIDEVESLGMCRESSSSRSEPSDAIRAVNALLTQIDRIRRRDNVLILCTSNLESTLDKALVDRADIVKNVGQPSDFARYSMLKSSIMELARIGVVIDNEVHTDYWPQDICDTKAPRNEFTEILFKIAQEARGLSGRAISMLPTLVYSKSPEETITLPNCMNLFLEAVKERLSRNN | not soluble
17 | MSLKGKIIEKVISKVKCKSDENYKIGLWVRDSTAGIGTLTFYSDKTKVFGALGHPITDVDTGDIINISRGSLIDSSIVSVNKGIRGNPGELRGIFINENKPIGIVKNNTICGLFGKGYEKFEGLQYNKPMEVAMRNEVKLGPAKILTTIDGSQPKMYAINIEKLFDQSSPNPKSMMIKVTDAELLDKTGGIVQGMSGSPIIQNNKVVGAVTHVLINKPDTGYGVYIEWMLKSAGILEGHHHHHH | soluble
18 | MSLNWEHLLSLKRQGDTAKRLRIEQDDTRLGFEVDYDRIIFSAPFRSLQDKTQVIPLSKTDFVHTRLTHSLEVSVVGRSLGRMVGKKLLEKYPHLEQVYGYKFNDFGAIVAAAALAHDIGNPPFGHSGEKAIGEFFKNGYGKRYKDSLTAKEYQDLIKFEGNANGFKVLSQSKPGAQGGLRLSYATLGAFMKYPKESLPHKPSDHIADKKYGFFQSERALFEDVAQELGLLKRSTTDDVSWSRHPLAYLVEAADDICYTIIDFEDGINLGLIPEEYALEYMVKLVGQTIDRNKYNALQETSDRVSYLRALAIGTLINESVDTFMKYEEEILAGTFDQSLIDKSNYQAQITDIINLSIERIYNSREVIEKEIAGYEILSTLLEARCRALDNNDTHYNQLIQQLLAPNDHSEKSLYENLIQICAEVSTMTDGKALRNYKKIKGLDEGHHHHHH | soluble
19 | MEKQNIAVILARQNSKGLPLKNLRKMNGISLLGHTINAAISSKCFDRIIVSTDGGLIAEEAKNFGVEVVLRPAELASDTASSISGVIHALETIGSNSGTVTLLQPTSPLRTGAHIREAFSLFDEKIKGSVVSACPMEHHPLKTLLQINNGEYAPMRHLSDLEQPRQQLPQAFRPNGAIYINDTASLIANNCFFIAPTKLYIMSHQDSIDIDTELDLQQAENILNHKES | soluble
